Source: patent US6555322 (FIBROGEN, dated 2003)

B1: recombinant human connective tissue growth factor (rhCTGF) (ligand, UniProt P29279 27-349, looked up)
chain: QNCSGPCRCPDEPAPRCPAGVSLVLDGCGCCRVCAKQLGELCTERDPCDPHKGLFCHFGSPANRKIGVCTAKDGAPCIFGGTVYRSGESFQSSCKYQCTCLDGAVGCMPLCSMDVRLPSPDCPFPRRVKLPGKCCEEWVCDEPKDQTVVGPALAAYRLEDTFGPDPTMIRANCLVQTTEWSACSKTCGMGISTRVTNDNASCRLEKQSRLCMVRPCEADLEENIKKGKKCIRTPKISKPIKFELSGCTSMKTYRAKFCGVCTDGRCCTPHRTTTLPVEFKCPDGEVMKKNMMFIKTCACHYNCPGDNDIFESLYYRKMYGDMA
modifications: radioiodinated (125I; Iodobeads or chloramine-T) when used as tracer; unlabeled when used as competitor
notes: mature; Form set to mature because the protein was secreted and purified from conditioned medium
B2: lipoprotein lipase purified from bovine milk (enzyme, UniProt P11151 29-478, looked up)
chain: DRITGGKDFRDIESKFALRTPEDTAEDTCHLIPGVTESVANCHFNHSSKTFVVIHGWTVTGMYESWVPKLVAALYKREPDSNVIVVDWLSRAQQHYPVSAGYTKLVGQDVAKFMNWMADEFNYPLGNVHLLGYSLGAHAAGIAGSLTNKKVNRITGLDPAGPNFEYAEAPSRLSPDDADFVDVLHTFTRGSPGRSIGIQKPVGHVDIYPNGGTFQPGCNIGEALRVIAERGLGDVDQLVKCSHERSVHLFIDSLLNEENPSKAYRCNSKEAFEKGLCLSCRKNRCNNMGYEINKVRAKRSSKMYLKTRSQMPYKVFHYQVKIHFSGTESNTYTNQAFEISLYGTVAESENIPFTLPEVSTNKTYSFLLYTEVDIGELLMLKLKWISDSYFSWSNWWSSPGFDIGKIRVKAGETQKKVIFCSREKMSYLQKGKSPVIFVKCHDKSLNRKSG
notes: also called LpL

How the values were obtained:
[1] = biological target: human low density lipoprotein receptor-related protein (LRP) / α2-macroglobulin receptor, CTGF receptor on … (human, UniProt Q07954 20-4544); assay: cell-based or functional assay
[2] = biological target: T1, CTGF receptor (LRP), cells not named; assay: equilibrium binding of 125I-rhCTGF to other cells with a single class of sites
T1 construct: whole, on cells; 'other cells examined'); also called cross-linked complex; 620 kDa protein

[3] = biological target: T2, murine low density lipoprotein receptor-related protein (LRP) / α2-macroglobulin receptor, CTGF receptor on … (murine, UniProt Q91ZX7 20-4545); assay: equilibrium binding of 125I-rhCTGF to cells (FIG. 2, BMS2), non-linear regression; low affinity site
T2 construct: whole, on cells; they are fragments found by mass spectrometry, not the construct; In the cell the protein is cleaved into non-covalently joined α and β subunits (background statement); also called α2MR; LRP/α2MR

[4] = biological target: high affinity binding site for CTGF on cells; assay: equilibrium binding of 125I-rhCTGF to cells (FIG. 2, BMS2), non-linear regression; high affinity site
[5] = biological target: T1, CTGF receptor (LRP), cells not named; assay: 200 pM iodinated CTGF with 0-6.5 nM unlabeled CTGF on cells, S-SMCC cross-linking, densitometry of the complex bands
[6] = biological target: T2, murine low density lipoprotein …; assay: competition with 0.1 nM 125I-CTGF on BMS-2 cells

T2 sequence (Q91ZX7 20-4545): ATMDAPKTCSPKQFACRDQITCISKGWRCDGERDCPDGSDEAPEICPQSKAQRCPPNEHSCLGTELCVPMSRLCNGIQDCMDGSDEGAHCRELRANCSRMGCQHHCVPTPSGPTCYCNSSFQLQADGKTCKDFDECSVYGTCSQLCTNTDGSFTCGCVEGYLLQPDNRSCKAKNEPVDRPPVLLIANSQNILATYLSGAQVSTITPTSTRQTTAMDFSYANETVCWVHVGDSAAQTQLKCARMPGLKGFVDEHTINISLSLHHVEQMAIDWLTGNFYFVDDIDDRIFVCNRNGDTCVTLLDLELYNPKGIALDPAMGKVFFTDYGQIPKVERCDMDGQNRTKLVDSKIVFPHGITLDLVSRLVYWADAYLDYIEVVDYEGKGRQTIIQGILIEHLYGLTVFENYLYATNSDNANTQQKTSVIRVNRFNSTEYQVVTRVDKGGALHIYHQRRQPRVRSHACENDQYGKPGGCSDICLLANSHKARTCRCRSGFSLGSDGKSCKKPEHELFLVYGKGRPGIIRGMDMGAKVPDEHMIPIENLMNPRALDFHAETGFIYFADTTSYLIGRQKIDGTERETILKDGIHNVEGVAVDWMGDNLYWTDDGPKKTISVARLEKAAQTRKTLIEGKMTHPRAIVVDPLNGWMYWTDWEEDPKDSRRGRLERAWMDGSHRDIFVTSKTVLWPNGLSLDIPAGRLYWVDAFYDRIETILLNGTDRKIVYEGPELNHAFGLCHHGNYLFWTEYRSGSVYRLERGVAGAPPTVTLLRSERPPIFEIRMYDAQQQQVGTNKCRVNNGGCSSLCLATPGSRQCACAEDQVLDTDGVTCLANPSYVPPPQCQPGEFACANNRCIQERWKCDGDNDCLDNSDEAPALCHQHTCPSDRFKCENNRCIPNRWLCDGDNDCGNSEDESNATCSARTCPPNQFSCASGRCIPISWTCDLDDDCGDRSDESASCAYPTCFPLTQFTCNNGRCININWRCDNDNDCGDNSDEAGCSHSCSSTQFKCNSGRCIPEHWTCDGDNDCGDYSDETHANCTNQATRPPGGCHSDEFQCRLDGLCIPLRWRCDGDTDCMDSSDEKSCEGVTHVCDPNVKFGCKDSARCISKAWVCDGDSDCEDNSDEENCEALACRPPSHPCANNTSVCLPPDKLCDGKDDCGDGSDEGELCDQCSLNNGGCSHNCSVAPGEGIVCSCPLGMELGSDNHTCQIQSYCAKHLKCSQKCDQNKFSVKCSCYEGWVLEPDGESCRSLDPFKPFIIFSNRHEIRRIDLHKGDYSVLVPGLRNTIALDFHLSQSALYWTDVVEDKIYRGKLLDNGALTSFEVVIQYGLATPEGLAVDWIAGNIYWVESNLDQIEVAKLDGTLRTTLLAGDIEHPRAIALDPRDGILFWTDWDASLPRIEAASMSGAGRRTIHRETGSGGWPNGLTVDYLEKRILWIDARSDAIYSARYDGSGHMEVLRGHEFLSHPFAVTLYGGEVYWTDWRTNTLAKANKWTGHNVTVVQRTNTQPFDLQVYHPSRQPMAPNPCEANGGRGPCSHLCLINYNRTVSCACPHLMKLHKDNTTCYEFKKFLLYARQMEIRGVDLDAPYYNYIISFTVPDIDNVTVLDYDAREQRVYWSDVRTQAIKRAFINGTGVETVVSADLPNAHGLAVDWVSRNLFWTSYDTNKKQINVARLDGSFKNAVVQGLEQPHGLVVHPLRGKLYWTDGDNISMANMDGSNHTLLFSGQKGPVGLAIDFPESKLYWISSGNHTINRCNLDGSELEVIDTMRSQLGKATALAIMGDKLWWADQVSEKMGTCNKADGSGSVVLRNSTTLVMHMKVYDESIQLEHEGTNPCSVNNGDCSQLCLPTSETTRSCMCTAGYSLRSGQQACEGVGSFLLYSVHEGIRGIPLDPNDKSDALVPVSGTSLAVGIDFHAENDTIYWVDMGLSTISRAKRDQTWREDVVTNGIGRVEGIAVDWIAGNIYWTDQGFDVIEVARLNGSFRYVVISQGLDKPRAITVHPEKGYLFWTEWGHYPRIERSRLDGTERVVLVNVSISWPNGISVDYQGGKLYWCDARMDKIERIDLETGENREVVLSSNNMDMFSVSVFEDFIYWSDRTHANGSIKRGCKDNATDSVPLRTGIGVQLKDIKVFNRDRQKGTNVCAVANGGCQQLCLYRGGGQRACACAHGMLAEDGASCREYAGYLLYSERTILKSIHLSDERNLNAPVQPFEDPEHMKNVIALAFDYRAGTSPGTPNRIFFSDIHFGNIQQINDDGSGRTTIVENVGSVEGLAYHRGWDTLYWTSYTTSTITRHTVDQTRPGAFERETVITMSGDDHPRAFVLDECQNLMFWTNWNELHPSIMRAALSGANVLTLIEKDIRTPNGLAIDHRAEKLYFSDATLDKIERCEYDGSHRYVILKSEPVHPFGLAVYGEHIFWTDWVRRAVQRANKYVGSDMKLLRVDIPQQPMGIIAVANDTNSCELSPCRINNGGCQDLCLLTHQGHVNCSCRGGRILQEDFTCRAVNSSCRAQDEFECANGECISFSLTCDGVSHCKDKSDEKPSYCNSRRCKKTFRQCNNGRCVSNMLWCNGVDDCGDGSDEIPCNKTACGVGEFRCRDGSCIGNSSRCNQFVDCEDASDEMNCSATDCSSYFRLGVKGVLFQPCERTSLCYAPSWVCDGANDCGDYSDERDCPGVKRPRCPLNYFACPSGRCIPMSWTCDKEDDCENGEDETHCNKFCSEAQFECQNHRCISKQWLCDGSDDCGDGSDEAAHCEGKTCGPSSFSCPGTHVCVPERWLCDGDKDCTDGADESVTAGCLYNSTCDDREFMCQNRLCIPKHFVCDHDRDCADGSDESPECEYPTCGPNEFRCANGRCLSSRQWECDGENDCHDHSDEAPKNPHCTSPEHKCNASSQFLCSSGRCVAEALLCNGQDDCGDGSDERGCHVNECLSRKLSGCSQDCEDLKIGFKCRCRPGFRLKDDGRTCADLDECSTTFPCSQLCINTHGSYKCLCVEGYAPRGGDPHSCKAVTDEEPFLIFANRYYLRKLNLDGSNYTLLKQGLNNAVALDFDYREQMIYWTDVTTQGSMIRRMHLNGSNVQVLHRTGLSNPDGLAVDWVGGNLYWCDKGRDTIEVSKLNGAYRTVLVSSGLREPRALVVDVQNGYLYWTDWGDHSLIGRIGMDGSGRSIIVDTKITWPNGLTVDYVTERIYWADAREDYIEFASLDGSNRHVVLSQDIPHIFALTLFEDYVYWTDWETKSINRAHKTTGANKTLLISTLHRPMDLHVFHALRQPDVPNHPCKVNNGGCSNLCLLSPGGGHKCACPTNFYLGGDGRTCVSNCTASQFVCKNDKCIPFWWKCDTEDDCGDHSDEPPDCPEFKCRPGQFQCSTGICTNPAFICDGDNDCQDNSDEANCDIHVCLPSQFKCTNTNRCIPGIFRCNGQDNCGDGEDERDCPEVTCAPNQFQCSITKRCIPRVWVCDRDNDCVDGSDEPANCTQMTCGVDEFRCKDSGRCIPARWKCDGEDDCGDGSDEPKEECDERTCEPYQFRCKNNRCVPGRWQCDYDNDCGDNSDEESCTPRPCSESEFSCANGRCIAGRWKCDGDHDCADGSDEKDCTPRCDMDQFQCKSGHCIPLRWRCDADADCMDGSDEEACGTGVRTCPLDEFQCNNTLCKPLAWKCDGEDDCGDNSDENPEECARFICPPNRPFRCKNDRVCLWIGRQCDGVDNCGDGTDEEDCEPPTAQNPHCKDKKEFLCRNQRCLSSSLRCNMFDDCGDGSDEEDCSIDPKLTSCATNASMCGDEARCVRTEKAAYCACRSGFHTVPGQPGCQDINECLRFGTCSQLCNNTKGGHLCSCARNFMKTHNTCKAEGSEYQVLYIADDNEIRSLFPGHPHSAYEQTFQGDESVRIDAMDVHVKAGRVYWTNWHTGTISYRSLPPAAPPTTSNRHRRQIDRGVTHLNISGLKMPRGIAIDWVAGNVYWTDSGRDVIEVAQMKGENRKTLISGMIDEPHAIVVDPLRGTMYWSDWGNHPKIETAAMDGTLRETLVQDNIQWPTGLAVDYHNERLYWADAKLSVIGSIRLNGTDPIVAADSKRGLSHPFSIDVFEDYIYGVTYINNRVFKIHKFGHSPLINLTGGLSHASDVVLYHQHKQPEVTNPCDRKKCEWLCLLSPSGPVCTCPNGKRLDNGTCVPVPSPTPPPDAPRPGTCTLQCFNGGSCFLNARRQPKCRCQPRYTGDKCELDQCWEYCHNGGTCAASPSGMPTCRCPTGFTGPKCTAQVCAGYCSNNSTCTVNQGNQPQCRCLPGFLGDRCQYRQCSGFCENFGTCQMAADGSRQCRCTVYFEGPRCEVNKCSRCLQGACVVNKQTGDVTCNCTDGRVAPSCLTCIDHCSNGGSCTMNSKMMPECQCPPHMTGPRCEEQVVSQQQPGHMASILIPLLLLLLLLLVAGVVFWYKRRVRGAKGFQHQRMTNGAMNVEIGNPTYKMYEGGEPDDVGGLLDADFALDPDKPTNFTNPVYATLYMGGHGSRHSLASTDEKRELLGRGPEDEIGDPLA

Binder	degradation of 125I-CTGF, control MG63 cells against cells treated with TGF-β for 48 hours [1]	Kd [2]	Kd [3]	Kd [4]	IC50 [5]	binding result [6]
B1	≥ 3 fold	~1 nM	~1 nM	~0.137 nM	~1 nM	–
B2	–	–	–	–	–	binds
